# Results reported in US20150224182A1 (UNIVERSITY OF VIRGINIA PATENT FOUNDATION, published 2015).
# Non-standard residues stand in square brackets, D forms with d. No end group written: not given here. pS = N[C@@H](COP(=O)(O)O)C(=O)O
# B1: TPAQPQRRsL (peptide)
# peptide: TPAQPQRR[pS]L
# B2: RTEsDSGLKK (peptide)
# peptide: RTE[pS]DSGLKK
# B3: SPAsPKISL (peptide)
# peptide: SPA[pS]PKISL
# B4: SPRsPGKPM (peptide)
# peptide: SPR[pS]PGKPM
# B5: SPKsPGLKA (peptide)
# peptide: SPK[pS]PGLKA
# B6: SPGLARKRsL (peptide)
# peptide: SPGLARKR[pS]L
# B7: VPRsPKHAHSSSL (peptide)
# peptide: VPR[pS]PKHAHSSSL
# B8: SPRsPSTTYL (peptide)
# peptide: SPR[pS]PSTTYL
# B9: TPIsPGRASGM (peptide)
# peptide: TPI[pS]PGRASGM
# B10: RSLsPLLF (peptide)
# peptide: RSL[pS]PLLF
# B11: SPSTSRSGGsSRL (peptide)
# peptide: SPSTSRSGG[pS]SRL
# B12: YQRsFDEVEGVF (peptide)
# peptide: YQR[pS]FDEVEGVF
# B13: SPSsPSVRRQL (peptide)
# peptide: SPS[pS]PSVRRQL
# B14: SPEKAGRRsSL (peptide)
# peptide: SPEKAGRR[pS]SL
# B15: YQRsFDEVEGV (peptide)
# peptide: YQR[pS]FDEVEGV
# B16: GGSFGGRSSGsP (peptide)
# peptide: GGSFGGRSSG[pS]P
# notes: From HNRNPA3, UniProt P51991
# B17: KLDsPRVTV (peptide)
# peptide: KLD[pS]PRVTV
# notes: From Protein FAM86A, UniProt Q96G04
# B18: DSsEEKFL (peptide)
# peptide: DS[pS]EEKFL
# notes: From Statherin (saliva), UniProt P02808
# B19: AVIHQsLGL (peptide)
# peptide: AVIHQ[pS]LGL
# notes: From Protein CNPPD1, UniProt Q9BV87
# B20: ILDsGIYRI (peptide)
# peptide: ILD[pS]GIYRI
# notes: From Hermansky-Pudlak syndrome 5 protein, UniProt Q9UPZ3
# B21: AMLGSKsPDPYRL (peptide)
# peptide: AMLGSK[pS]PDPYRL
# notes: From Protein SON, UniProt P18583
# B22: KLLQFYPsL (peptide)
# peptide: KLLQFYP[pS]L
# B23: ALDsGASLLHL (peptide)
# peptide: ALD[pS]GASLLHL
# B24: KLFsPSKEAEL (peptide)
# peptide: KLF[pS]PSKEAEL
# notes: From Protein cramped-like, UniProt Q96RY5
# B25: KAKsPAPGL (peptide)
# peptide: KAK[pS]PAPGL
# notes: From Nuclear receptor corepressor 2, UniProt Q9Y618
# B26: GLLsPARLYAI (peptide)
# peptide: GLL[pS]PARLYAI
# notes: From Leucine rich PPR-motif containing protein, UniProt P42704
# B27: ALGsRESLATI (peptide)
# peptide: ALG[pS]RESLATI
# B28: KIFsGVFVKV (peptide)
# peptide: KIF[pS]GVFVKV
# notes: From 60S ribosomal protein L7-like 1, UniProt Q6DKI1
# Molecular target: T1, HLA B*0702 (human)
# T1 construct: Class I MHC molecule of the cells from which the associated phosphopeptides were detected; also called HLA-B7
# Assay: MS of peptides eluted from HLA; L/M column: L
row,binding result,Binder
1,binds,B1
2,binds,B2
3,binds,B3
4,binds,B4
5,binds,B5
6,binds,B6
7,binds,B7
8,binds,B8
9,binds,B9
10,binds,B10
11,binds,B11
12,binds,B12
13,binds,B13
14,binds,B14
15,binds,B15

# Molecular target: T2, HLA-A*0201 (human)
# T2 construct: also called HLA-A2
# Assay: listed as presented with class I MHC on cancer cells (leukemia or transformed B cells)
row,binding result,Binder
1,binds,B16
2,binds,B17
3,binds,B18
4,binds,B19
5,binds,B20
6,binds,B21
7,binds,B22
8,binds,B23
9,binds,B24
10,binds,B25
11,binds,B26
12,binds,B27
13,binds,B28
